From US20230272023A1 (HUMAN CELL, published 2023)

How the values were obtained:
[1] = biological target: T1, human TrkA on TF1 erythroleukemic cells (human, UniProt P04629 33-796); test: cell-based or functional assay
[2] = biological target: T1, human TrkA on TF1 erythroleukemic cells; test: cell-based or functional assay; remark: listed apart in the source
[3] = biological target: T2, p75^NTR receptor immobilized on the Biacore chip (UniProt P08138 29-250); test: SPR, Biacore 3000; Table 4 column Binding affinity (nM), P75^NTR
T2 sequence (looked up): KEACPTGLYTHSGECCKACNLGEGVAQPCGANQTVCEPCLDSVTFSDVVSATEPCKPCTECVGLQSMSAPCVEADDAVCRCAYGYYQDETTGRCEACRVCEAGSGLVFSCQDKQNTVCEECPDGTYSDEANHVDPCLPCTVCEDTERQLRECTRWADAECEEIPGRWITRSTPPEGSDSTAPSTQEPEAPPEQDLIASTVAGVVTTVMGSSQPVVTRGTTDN
Experimental: (§1) The binding experiments were performed on Biacore 3000 at 25° C. Receptors were directly immobilized by direct immobilization using EDC/NHS amine coupling kit and GE protocol. The receptor was coated until the desired RU. The unoccupied active sites on the chip were quenching by flowing 1 M ethanol amine. […] Data were analyzed using Biacore 3000 bia evaluation software (Biacore) using the values after reference subtraction. KD was determined by applying either local (for scouting) or global (full kinetics) 1:1 Langmuir fitting model. Full kinetics was performed with the range of analyte at a 2-fold serial dilution and flowed over the ligand from lowest to highest concentration range.

[4] = biological target: T3, TrkA receptor immobilized on the Biacore chip (UniProt P04629 33-423, limits assumed); test: SPR, Biacore 3000; Table 4 column Binding affinity (nM), TrkA receptor
T3 sequence (P04629 33-423 limits assumed): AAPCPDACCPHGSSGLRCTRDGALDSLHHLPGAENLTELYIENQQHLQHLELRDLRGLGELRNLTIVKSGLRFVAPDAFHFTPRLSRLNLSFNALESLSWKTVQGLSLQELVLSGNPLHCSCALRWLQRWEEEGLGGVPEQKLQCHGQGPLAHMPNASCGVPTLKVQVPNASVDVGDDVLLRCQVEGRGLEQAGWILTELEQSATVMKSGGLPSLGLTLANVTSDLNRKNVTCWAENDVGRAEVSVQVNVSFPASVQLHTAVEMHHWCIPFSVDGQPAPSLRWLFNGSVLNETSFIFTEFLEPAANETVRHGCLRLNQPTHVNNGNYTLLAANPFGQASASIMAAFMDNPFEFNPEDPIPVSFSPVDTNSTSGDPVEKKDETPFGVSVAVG
Experimental: as §1

[5] = biological target: T3, TrkA receptor immobilized on the …; test: SPR, Biacore 3000, 25 C, receptor amine-coupled on chip, NGF mutein as analyte, 1:1 Langmuir
Experimental: as §1

[6] = biological target: T1, human TrkA on TF1 erythroleukemic cells; test: cell-based or functional assay; remark: listed apart in the source
[7] = biological target: T2, p75^NTR receptor immobilized on the …; test: SPR, Biacore 3000, 25 C, receptor amine-coupled on chip, NGF mutein as analyte
Experimental: as §1

[8] = biological target: T2, p75^NTR receptor immobilized on the …; test: SPR, Biacore 3000; against NGF wt
Experimental: as §1

[9] = biological target: T3, TrkA receptor immobilized on the …; test: SPR, Biacore 3000; against NGF wt
Experimental: as §1

[10] = biological target: T3, TrkA receptor immobilized on the …; test: SPR, Biacore 3000; ratio of the affinity for TrkA over that for p75^NTR
Experimental: as §1

T1 sequence (P04629 33-796): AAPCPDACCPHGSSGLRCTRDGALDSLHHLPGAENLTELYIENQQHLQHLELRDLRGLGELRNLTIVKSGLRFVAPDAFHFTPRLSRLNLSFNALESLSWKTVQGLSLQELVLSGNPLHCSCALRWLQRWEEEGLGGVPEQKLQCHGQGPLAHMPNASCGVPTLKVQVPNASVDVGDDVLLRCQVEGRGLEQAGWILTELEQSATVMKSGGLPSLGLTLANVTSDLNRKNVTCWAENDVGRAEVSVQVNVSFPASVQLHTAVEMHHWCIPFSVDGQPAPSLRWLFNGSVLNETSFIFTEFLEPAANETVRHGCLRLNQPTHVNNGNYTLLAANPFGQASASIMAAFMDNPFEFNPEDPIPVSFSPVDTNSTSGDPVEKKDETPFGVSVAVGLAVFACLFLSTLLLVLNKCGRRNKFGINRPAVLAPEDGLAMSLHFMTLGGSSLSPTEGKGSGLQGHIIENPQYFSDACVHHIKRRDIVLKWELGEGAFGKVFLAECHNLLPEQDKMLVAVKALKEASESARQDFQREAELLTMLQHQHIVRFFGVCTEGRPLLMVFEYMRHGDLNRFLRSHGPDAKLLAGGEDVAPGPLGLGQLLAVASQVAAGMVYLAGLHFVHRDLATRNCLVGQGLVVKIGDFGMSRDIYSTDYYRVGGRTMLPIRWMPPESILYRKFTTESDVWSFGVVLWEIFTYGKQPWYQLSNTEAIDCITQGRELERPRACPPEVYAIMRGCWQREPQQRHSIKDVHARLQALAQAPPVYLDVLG

B1: NGF K34A/R69A (ligand)
chain: SSSHPIFHRGEFSVCDSVSVWVGDKTTATDIKGAEVMVLGEVNINNSVFKQYFFETKCRDPNPVDSGCAGIDSKHWNSYCTTTHTFVKALTMDGKQAAWRFIRIDTACVCVLSRKAVRRA
B1 was tested, and the “EC50 in TF-1 proliferation assay, protein kept 7 days at 4° C.” value (shortened to “EC50 in TF-1 proliferation assay … at 4° C.”) [1] was 9.13 ng/mL.

B2: NGF K34D/K32A (ligand)
chain: SSSHPIFHRGEFSVCDSVSVWVGDKTTATDIAGDEVMVLGEVNINNSVFKQYFFETKCRDPNPVDSGCRGIDSKHWNSYCTTTHTFVKALTMDGKQAAWRFIRIDTACVCVLSRKAVRRA
For B2, the “EC50 in TF-1 proliferation assay, 4° C.” value [2] was 1.91 ng/mL and the “EC50 in TF-1 proliferation assay, after storage at 55° C.” value [2] was 9.7 ng/mL.

B3: NGF K34D/R69A (ligand)
chain: SSSHPIFHRGEFSVCDSVSVWVGDKTTATDIKGDEVMVLGEVNINNSVFKQYFFETKCRDPNPVDSGCAGIDSKHWNSYCTTTHTFVKALTMDGKQAAWRFIRIDTACVCVLSRKAVRRA
For B3, the “EC50 in TF-1 proliferation assay … at 4° C.” value [1] was 12.3 ng/mL.

B4: NGF K34D/R69A/R100D (ligand)
chain: SSSHPIFHRGEFSVCDSVSVWVGDKTTATDIKGDEVMVLGEVNINNSVFKQYFFETKCRDPNPVDSGCAGIDSKHWNSYCTTTHTFVKALTMDGKQAAWDFIRIDTACVCVLSRKAVRRA
B4 was tested, and the “EC50 in TF-1 proliferation assay … at 4° C.” value [1] was 23 ng/mL.

B5: NGF K34A/R69A/R100E (ligand)
chain: SSSHPIFHRGEFSVCDSVSVWVGDKTTATDIKGAEVMVLGEVNINNSVFKQYFFETKCRDPNPVDSGCAGIDSKHWNSYCTTTHTFVKALTMDGKQAAWEFIRIDTACVCVLSRKAVRRA
With B5 the “EC50 in TF-1 proliferation assay … at 4° C.” value [1] was 689 ng/mL.

B6: NGF K34D/R100E (ligand)
chain: SSSHPIFHRGEFSVCDSVSVWVGDKTTATDIKGDEVMVLGEVNINNSVFKQYFFETKCRDPNPVDSGCRGIDSKHWNSYCTTTHTFVKALTMDGKQAAWEFIRIDTACVCVLSRKAVRRA
With B6 the “EC50 in TF-1 proliferation assay … at 4° C.” value [1] was 58.8 ng/mL.

B7: NGF K34D/K32D (ligand)
chain: SSSHPIFHRGEFSVCDSVSVWVGDKTTATDIDGDEVMVLGEVNINNSVFKQYFFETKCRDPNPVDSGCRGIDSKHWNSYCTTTHTFVKALTMDGKQAAWRFIRIDTACVCVLSRKAVRRA
notes: Double mutein of mature human NGF; expressed in HEK293 cells; also called NGF34D/K32D; NGF34D/32 D
In the case of B7, the Kd [3] is reported as > 200 nM, the Kd [4] is reported as 0.61 nM and the Kd [5] is reported as 0.607 nM. The koff [5] was 0.00398 s⁻¹, the kon [5] was 6.54e+06 M⁻¹ s⁻¹ and the “EC50 in TF-1 proliferation assay, 4° C.” value [2] was 2.62 ng/mL. The “EC50 in TF-1 proliferation assay, after storage at 55° C.” value [2] was 1.15 ng/mL, the “TrkA receptor Bio-activity” value [6] was 2.62 ng/mL and the Kd [7] was > 200 nM. For the same binder, the “fold reduction of binding affinity against wildtype” value [8] was 625 fold, the “binding affinity, % of wildtype” value [9] was 5.9 % of wildtype and the “fold reduction of binding affinity against wildtype” value [9] was 18 fold. For the same binder, the “Binding selectivity (TrkA/p75^NTR)” value [10] was > 328 fold.
